Source: US20260008830A1
Each block holds one substance with its values, some of them ahead of it.

Key:
Assay in all cases: cell-based or functional assay
[1] = target: T1, IFN-gamma receptor on HEK-Dual cells (Human IFN-γ SEAP/Luciferase Reporter Cells, hkd-ifng)
T1 sequence (P15260 whole entry, looked up): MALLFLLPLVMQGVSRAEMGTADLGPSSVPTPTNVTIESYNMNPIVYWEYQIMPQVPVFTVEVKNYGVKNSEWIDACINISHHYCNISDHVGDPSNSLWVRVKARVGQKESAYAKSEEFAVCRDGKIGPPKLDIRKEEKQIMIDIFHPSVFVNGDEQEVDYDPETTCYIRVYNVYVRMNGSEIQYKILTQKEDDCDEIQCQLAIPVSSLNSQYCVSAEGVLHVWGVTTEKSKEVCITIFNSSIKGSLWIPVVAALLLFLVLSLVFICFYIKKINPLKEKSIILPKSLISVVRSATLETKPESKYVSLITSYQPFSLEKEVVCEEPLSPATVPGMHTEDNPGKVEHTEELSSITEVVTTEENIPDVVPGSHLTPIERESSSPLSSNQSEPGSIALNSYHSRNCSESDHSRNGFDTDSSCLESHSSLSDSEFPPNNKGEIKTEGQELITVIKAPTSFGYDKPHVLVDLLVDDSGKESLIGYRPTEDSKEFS
T1 sequence (P38484 whole entry, looked up): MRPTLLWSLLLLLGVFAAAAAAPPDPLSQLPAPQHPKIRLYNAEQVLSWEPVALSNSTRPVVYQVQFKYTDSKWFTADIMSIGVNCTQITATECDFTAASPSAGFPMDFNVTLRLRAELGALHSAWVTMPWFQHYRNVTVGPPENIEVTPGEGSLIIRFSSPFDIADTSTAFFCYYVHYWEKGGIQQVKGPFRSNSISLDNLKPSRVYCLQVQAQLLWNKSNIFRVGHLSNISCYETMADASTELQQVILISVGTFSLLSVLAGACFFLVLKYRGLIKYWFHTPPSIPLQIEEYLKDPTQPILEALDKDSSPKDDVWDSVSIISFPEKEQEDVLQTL

[2] = target: T2, IL-10 receptors R1 and R2 on HEK-Blue IL-10 reporter cells (UniProt Q13651)
T2 sequence (looked up) 1: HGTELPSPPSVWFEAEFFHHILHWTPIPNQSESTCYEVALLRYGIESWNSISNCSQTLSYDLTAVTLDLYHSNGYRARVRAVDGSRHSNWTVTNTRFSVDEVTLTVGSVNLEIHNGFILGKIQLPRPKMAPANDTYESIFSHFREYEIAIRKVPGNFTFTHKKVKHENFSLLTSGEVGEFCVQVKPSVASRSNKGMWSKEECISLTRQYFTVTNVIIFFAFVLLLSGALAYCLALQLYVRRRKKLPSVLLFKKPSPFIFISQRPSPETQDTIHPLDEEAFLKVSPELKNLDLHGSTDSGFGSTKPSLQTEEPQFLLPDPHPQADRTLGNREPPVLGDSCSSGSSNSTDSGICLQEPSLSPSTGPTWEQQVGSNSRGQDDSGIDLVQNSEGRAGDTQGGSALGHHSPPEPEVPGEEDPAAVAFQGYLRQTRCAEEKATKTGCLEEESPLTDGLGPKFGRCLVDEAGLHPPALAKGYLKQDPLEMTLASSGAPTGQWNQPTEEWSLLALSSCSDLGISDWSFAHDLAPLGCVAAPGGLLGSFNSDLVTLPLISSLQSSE
T2 sequence (looked up) 2: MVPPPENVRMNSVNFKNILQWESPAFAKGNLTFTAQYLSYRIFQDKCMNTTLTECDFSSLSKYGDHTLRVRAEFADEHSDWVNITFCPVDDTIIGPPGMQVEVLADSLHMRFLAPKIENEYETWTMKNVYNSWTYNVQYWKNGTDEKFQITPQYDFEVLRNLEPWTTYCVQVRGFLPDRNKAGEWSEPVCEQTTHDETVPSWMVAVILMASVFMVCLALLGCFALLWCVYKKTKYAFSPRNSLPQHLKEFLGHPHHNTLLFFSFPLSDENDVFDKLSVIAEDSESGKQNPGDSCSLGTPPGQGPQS

[3] = target: IL-22 receptors R1 and R2 on HEK-Blue IL-22 reporter cells (UniProt Q8N6P7)
[4] = target: IL-10 receptors R1 and R2 on HEK-Blue IL-10 reporter cells (UniProt Q13651); remark: listed apart in the source

Chain of IL-10 ORF (WT human IL-10 expressed and secreted by M. pneumoniae) (P22301 other isoform, or with tags, fused parts or gaps limits assumed): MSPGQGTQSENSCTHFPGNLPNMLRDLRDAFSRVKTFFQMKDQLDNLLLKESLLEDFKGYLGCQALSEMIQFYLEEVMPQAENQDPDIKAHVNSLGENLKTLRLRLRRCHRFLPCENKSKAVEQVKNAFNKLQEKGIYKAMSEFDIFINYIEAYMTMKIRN
Chain of IL-22 receptors R1 and R2 on HEK-Blue IL-22 reporter cells (Q8N6P7 16-574 limits assumed): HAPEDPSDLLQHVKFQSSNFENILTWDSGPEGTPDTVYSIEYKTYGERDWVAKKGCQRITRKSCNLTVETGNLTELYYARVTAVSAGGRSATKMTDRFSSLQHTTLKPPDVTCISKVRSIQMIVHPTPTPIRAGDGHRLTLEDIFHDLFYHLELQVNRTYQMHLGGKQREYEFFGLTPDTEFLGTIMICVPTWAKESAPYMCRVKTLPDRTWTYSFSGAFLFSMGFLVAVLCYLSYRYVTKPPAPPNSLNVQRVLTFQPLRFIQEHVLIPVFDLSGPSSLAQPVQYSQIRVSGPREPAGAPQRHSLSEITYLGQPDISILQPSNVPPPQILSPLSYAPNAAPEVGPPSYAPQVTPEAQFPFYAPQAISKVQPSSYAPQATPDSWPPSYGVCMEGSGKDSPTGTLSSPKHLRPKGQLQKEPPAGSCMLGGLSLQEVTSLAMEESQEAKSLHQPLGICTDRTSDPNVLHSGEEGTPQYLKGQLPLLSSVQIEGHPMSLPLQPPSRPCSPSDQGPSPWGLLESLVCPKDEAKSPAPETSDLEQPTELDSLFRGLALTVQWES
Chain of IFNg WT (crystallised version of IFNg of PDB 6e3k) (P01579 other isoform, or with tags, fused parts or gaps limits assumed): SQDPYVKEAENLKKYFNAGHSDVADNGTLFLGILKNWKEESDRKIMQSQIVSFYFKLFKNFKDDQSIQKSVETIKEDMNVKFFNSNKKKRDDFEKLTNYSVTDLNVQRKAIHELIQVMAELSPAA

EC50 (HEK Dual cells responding to IFNγ) [1]: 0.0866 nM
Substance: IFNg WT (crystallised version of IFNg of PDB 6e3k) (from UniProt P01579 24-147) (ligand)

Apparent Kd (M) average (HEK-Blue IL-10 SEAP reporter, absorbance 630 nm, saturation binding fit) [2]: 1.98e-10 M
Fold change-apparentKD (against IL-10 ORF) [2]: 1 fold
Substance: IL-10 ORF (WT human IL-10 expressed and secreted by M. pneumoniae) (from UniProt P22301 19-178) (ligand)

app KD (HEK-Blue IL-22 reporter) [3]: 0.128 nM
Substance: WT22 (IL-22 WT used as reference for the interface mutants) (from UniProt Q9GZX6 34-179) (ligand)

Apparent Kd (M) average (HEK-Blue IL-10 SEAP reporter, absorbance 630 nm, saturation binding fit) [4]: 4.61e-10 M
Fold change-apparentKD (against IL-10 ORF) [4]: 0.43 fold
Substance: hIL-10r (commercial recombinant human IL-10, #200-10, Peprotech) (from UniProt P22301 19-178) (ligand)
